From paper PMC10949515 (Journal of Virology, 2024)

B1: human FLNB C-terminal fragment R22–24, His6-tagged (domain or fragment, UniProt O75369 2282-2601, looked up)
chain: APSDDARRLTVMSLQESGLKVNQPASFAIRLNGAKGKIDAKVHSPSGAVEECHVSELEPDKYAVRFIPHENGVHTIDVKFNGSHVVGSPFKVRVGEPGQAGNPALVSAYGTGLEGGTTGIQSEFFINTTRAGPGTLSVTIEGPSKVKMDCQETPEGYKVMYTPMAPGNYLISVKYGGPNHIVGSPFKAKVTGQRLVSPGSANETSSILVESVTRSSTETCYSAIPKASSDASKVTSKGAGLSKAFVGQKSSFLVDCSKAGSNMLLIGVHGPTTPCEEVSMKHVGNQQYNVTYVVKERGDYVLAVKWGEEHIPGSPFHVTV
notes: also called R22–R24; FLNB R22-24

Tests used:
[1] = molecular target: the molecule itself
[2] = molecular target: T1, FLNB R22–24 dimerization-deficient mutant (M2544E, L2546D), His6-tagged (human, UniProt O75369 2282-2601, M2544E | L2546D); test: SEC; details: both partners purified
T1 construct: also called mR22–R24; mR22–24
T1 sequence (looked up): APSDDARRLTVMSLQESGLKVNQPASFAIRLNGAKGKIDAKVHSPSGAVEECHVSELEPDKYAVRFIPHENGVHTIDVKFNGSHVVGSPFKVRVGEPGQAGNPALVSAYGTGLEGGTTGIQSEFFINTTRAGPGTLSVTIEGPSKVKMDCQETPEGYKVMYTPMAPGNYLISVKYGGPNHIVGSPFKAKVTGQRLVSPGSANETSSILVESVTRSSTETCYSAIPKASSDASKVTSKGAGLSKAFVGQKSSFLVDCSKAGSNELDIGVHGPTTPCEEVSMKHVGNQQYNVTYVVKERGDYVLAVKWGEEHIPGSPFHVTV

[3] = molecular target: T2, human FLNB C-terminal fragment R23–24, His6-tagged (human, UniProt O75369 2379-2601); test: ITC; details: both partners purified
T2 construct: also called R23–R24; FLNB R23-24
T2 sequence (looked up): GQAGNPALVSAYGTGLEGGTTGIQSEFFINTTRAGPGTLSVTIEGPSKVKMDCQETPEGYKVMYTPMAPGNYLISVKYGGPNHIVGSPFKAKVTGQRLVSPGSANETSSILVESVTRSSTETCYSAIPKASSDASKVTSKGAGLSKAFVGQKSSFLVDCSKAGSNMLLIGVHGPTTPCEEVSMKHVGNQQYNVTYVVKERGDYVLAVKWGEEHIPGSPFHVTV

[4] = molecular target: B1; test: ITC; details: both partners purified

Binder | binding result [1] | binding result [2] | Kd [3] | Kd [4]
B1 | binds |  |  | 
C4 N-terminal residues 1–149, His6-tagged (domain or fragment, also called C4-N 1–149) MDTIKIFNHGEFDTIRNELVNLLKVVKWNTINSNVTVSSTDTIDISDCIREILYKQFKNVRNIEVSSDISFIKYNRFNDTTLTDDNVGYYLVIYLNRTKSVKTLIYPTPETVITSSEDIMFSKSLNFRFENVKRDYKLVMCSISLTYKP |  | binds | < 1 nM | 41.5 ± 30 nM
